From article PMC2853223 (ACS chemical biology, 2009) come the findings set out here.

The labels stand for the following.
B2: PikAIV KSdd residues 1-37 (the PikAIV part of P3P4dock) (domain or fragment, UniProt Q9ZGI2 1-37, looked up)
chain: MTSSNEQLVDALRASLKENEELRKESRRRADRRQEPM

The target of data set [1] is T1, PikAIII ACPdd (N-terminally His-tagged discrete C-terminal docking domain of PikAIII) (UniProt Q9ZGI3 1479-1562).
T1 sequence (looked up): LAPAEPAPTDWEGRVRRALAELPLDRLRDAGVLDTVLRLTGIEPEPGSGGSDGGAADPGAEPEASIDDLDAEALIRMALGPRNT
Put plainly: SPR.

Data set [2] deals with the molecule itself. As to the kind of experiment: crystal structure.
The target in data set [3] is PikAIV full module (post-translational modification of its ACP domain (grown in BAP1 E. coli cells)). Put plainly: fluorescence polarisation.
Data set [4] deals with B2. Put plainly: crystal structure.

B1: PikAIV KSdd (discrete N-terminal docking domain of PikAIV, tagless) (domain or fragment, UniProt Q9ZGI2 1-37, looked up)
chain: MTSSNEQLVDALRASLKENEELRKESRRRADRRQEPM
By Kd is commonly meant the constant that tells how readily two partners part at equilibrium. Low readings indicate tighter binding, high ones weaker binding. The term koff denotes the rate constant with which the complex falls apart. Low readings indicate a long-lived complex, high ones a short-lived complex. The kon is the rate constant with which the complex forms. A higher kon goes with faster complex formation. In data set [1], B1 came in with a dissociation constant Kd of 73 ± 43 µM, an off-rate constant (koff) of 0.21 ± 0.03 s⁻¹ and a kon of 3000 ± 1800 M⁻¹ s⁻¹.

Take B2: the binding result in data set [2] is reported as “binds”.

B3: PikAIII ACPdd-FL (PikAIII ACPdd with an added C-terminal cysteine labelled with BODIPY-FL) (domain or fragment)
chain: LAPAEPAPTDWEGRVRRALAELPLDRLRDAGVLDTVLRLTGIEPEPGSGGSDGGAADPGAEPEASIDDLDAEALIRMALGPRNTC
modifications: BODIPY-FL (iodoacetamide) on the added C-terminal cysteine
Regarding B3, the dissociation constant Kd in data set [3] was found to be 5 ± 1 µM.

B4: P3P4dock (amino acids 1534-1562 of PikAIII ACPdd fused to amino acids 1-37 of the KSdd of PikAIV) (other)
chain: SNADPGAEPEASIDDLDAEALIRMALGPRNTMTSSNEQLVDALRASLKENEELRKESRRRADRRQEPM
On to B4, for which, in data set [2], the binding result is “binds”.

B5: PikAIII ACPdd residues 1534-1562 (the PikAIII part of P3P4dock) (domain or fragment, UniProt Q9ZGI3 1534-1562, looked up)
chain: ADPGAEPEASIDDLDAEALIRMALGPRNT
B5: the binding result in data set [4] is recorded as “binds”.
